B1: CARM1, purified human protein (enzyme, UniProt Q86X55 1-608, looked up)
chain: MAAAAAAVGPGAGGAGSAVPGGAGPCATVSVFPGARLLTIGDANGEIQRHAEQQALRLEVRAGPDSAGIALYSHEDVCVFKCSVSRETECSRVGKQSFIITLGCNSVLIQFATPNDFCSFYNILKTCRGHTLERSVFSERTEESSAVQYFQFYGYLSQQQNMMQDYVRTGTYQRAILQNHTDFKDKIVLDVGCGSGILSFFAAQAGARKIYAVEASTMAQHAEVLVKSNNLTDRIVVIPGKVEEVSLPEQVDIIISEPMGYMLFNERMLESYLHAKKYLKPSGNMFPTIGDVHLAPFTDEQLYMEQFTKANFWYQPSFHGVDLSALRGAAVDEYFRQPVVDTFDIRILMAKSVKYTVNFLEAKEGDLHRIEIPFKFHMLHSGLVHGLAFWFDVAFIGSIMTVWLSTAPTEPLTHWYQVRCLFQSPLFAKAGDTLSGTCLLIANKRQSYDISIVAQVDQTGSKSSNLLDLKNPFFRYTGTTPSPPPGSHYTSPSENMWNTGSTYNLSSGMAVAGMPTAYDLSSVIASGSSVGHNNLIPLANTGIVNHTHSRMGSIMSTGIVQGSSGAQGSGGGSTSAHYAVNSQFTMGGPAISMASPMSIPTNTMHYGS
B2: Estrogen receptor alpha (ERα), purified human protein (receptor, UniProt P03372 1-595, looked up)
chain: MTMTLHTKASGMALLHQIQGNELEPLNRPQLKIPLERPLGEVYLDSSKPAVYNYPEGAAYEFNAAAAANAQVYGQTGLPYGPGSEAAAFGSNGLGGFPPLNSVSPSPLMLLHPPPQLSPFLQPHGQQVPYYLENEPSGYTVREAGPPAFYRPNSDNRRQGGRERLASTNDKGSMAMESAKETRYCAVCNDYASGYHYGVWSCEGCKAFFKRSIQGHNDYMCPATNQCTIDKNRRKSCQACRLRKCYEVGMMKGGIRKDRRGGRMLKHKRQRDDGEGRGEVGSAGDMRAANLWPSPLMIKRSKKNSLALSLTADQMVSALLDAEPPILYSEYDPTRPFSEASMMGLLTNLADRELVHMINWAKRVPGFVDLTLHDQVHLLECAWLEILMIGLVWRSMEHPGKLLFAPNLLLDRNQGKCVEGMVEIFDMLLATSSRFRMMNLQGEEFVCLKSIILLNSGVYTFLSSTLKSLEEKDHIHRVLDKITDTLIHLMAKAGLTLQQQHQRLAQLLLILSHIRHMSNKGMEHLYSMKCKNVVPLYDLLLEMLDAHRLHAPTSRGGASVEETDQSHLATAGSTSSHSLQKYYITGEAEGFPATV

Assay [1] has as its target p300, purified recombinant protein from baculovirus (human, UniProt Q09472 1-2414). Kind of assay: cryo-EM structure.
Assay [2] concerns the target B1. In words: cryo-EM structure.

Sequence of p300, purified recombinant protein from baculovirus (Q09472 whole entry): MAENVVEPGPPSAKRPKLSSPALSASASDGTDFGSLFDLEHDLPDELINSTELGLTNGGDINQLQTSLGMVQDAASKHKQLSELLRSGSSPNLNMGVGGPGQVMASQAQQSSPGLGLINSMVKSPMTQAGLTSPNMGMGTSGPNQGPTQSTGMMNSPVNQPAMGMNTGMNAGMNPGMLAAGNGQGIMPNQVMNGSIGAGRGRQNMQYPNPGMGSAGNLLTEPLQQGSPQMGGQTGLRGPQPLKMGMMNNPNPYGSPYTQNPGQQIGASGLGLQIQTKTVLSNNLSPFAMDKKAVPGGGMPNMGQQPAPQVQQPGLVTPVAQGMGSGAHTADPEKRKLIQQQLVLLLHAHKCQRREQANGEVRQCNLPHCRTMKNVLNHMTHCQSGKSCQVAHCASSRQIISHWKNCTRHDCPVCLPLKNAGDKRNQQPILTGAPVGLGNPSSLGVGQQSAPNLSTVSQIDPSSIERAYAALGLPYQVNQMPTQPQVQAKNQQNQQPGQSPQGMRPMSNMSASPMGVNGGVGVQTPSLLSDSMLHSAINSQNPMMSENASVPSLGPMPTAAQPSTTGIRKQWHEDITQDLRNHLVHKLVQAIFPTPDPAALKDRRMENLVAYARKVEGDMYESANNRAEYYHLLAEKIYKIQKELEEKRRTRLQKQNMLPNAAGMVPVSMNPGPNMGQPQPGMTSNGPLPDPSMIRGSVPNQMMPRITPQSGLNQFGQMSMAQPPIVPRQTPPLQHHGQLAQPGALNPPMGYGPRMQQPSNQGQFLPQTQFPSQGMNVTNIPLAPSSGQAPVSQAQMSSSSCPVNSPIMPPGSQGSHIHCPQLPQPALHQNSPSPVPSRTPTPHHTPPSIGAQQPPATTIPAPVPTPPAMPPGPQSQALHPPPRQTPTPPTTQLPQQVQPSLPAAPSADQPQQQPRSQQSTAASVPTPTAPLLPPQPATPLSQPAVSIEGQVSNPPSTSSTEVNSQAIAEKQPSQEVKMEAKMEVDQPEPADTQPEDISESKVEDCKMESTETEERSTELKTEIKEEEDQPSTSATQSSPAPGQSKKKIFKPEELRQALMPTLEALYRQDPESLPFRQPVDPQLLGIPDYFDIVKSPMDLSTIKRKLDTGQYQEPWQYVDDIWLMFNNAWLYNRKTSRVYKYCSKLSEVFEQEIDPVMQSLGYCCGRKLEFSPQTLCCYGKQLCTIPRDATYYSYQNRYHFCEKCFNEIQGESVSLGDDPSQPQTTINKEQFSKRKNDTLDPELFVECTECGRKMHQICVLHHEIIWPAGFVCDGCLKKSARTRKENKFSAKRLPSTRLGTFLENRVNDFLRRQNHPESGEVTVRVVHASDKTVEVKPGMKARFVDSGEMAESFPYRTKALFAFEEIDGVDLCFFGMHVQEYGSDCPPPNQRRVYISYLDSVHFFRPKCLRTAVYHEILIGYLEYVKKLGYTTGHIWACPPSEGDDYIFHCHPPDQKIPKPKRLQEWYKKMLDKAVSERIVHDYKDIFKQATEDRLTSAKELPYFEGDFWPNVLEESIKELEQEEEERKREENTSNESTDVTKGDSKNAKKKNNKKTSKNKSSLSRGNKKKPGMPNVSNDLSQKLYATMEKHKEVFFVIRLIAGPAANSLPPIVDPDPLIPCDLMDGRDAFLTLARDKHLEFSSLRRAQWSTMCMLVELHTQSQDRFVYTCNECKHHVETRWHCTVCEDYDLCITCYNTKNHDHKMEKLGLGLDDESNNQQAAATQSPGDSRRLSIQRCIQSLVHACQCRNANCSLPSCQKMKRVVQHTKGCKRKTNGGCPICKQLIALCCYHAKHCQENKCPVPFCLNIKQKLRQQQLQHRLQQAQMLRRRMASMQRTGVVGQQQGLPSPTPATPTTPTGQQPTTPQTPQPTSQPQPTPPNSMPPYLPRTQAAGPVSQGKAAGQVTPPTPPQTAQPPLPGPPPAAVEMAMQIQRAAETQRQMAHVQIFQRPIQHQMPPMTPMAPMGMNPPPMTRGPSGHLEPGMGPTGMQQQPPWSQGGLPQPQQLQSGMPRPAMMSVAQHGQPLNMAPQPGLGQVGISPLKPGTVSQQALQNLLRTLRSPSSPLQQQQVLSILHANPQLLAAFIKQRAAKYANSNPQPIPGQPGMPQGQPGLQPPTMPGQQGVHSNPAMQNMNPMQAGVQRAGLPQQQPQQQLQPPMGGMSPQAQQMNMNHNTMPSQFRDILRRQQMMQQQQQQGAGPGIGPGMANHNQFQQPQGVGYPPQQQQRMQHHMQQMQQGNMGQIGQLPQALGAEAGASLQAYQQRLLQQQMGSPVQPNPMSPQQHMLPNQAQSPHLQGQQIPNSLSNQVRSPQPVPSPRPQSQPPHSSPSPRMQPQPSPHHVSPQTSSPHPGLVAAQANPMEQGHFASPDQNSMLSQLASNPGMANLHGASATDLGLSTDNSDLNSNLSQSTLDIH

With B1, in assay [1], the binding result is given as “binds”.

As to B2, the binding result in assay [1] and in assay [2] was “binds” each time.
